Test results as given in patent US20160053011A1 (ABCLON, published 2016).

The binders below were run against T1, HER2-ECD-His protein (human, UniProt P04626 23-652) (assay: SPR (Biacore 3000), HER2-ECD-His amine-coupled to CM5, periplasmic extract as analyte).
T1 construct: extracellular domain; not shown: His tag
Procedure: In order to select clones with improved Koff among the selected clones, the clones were analyzed via Biacore 3000 (GE Healthcare). The HER2-ECD-His protein was immobilized to a CM5 sensor chip via an amine coupling method using ECD/NHS. […] The Koff value for each antibody was analyzed via BIAevaluation software.

Degree of reduction (Fold) of koff against hz1E11 | Binder
30.4 fold | M3-L-A1-3-1A12 (hz1E11-133), periplasmic extract (antibody, V domains shown, Library clone expressed in bacteria with IPTG, tested as periplasmic extract; LCDR3 QQNAYAPWT) VH: EVQLVESGGGLVQPGGSLRLSCAASGFTFSSYTMSWVRQAPGKGLEWVAYISNGGGSTYYPDTVKGRFTISRDNAKNSLYLQMNSLRAEDTAVYYCARHLGGTASFDYWGQGTLVTVSS VL: DIQMTQSPSSLSASVGDRVTITCLASQTIGTWLAWYQQKPGKAPKLLIYVATSLADGVPSRFSGSGSGTDFTLTISSLQPEDFATYYCQQNAYAPWTFGQGTKVEIK
4.4 fold | M3-LH-A3-3-2F1 (antibody, V domains shown, hz1E11 library clone, periplasmic extract) VH: EVQLVESGGGLVQPGGSLRLSCAASGFTFSSYTMSWVRQAPGKGLEWVAYISNGGGSTYYPDTVKGRFTISRDNAKNSLYLQMNSLRAEDTAVYYCARHLGGTASFDYWGQGTLVTVSS VL: DIQMTQSPSSLSASVGDRVTITCLASQTIGTWLAWYQQKPGKAPKLLIYVATSLADGVPSRFSGSGSGTDFTLTISSLQPEDFATYYCQQNAYNPWTFGQGTKVEIK
0.7 fold | M3-LH-A1-1-1H1 (antibody, name in Kabat numbering, V domains shown, hz1E11 library clone, periplasmic extract) VH: EVQLVESGGGLVQPGGSLRLSCAASGFTFSSYTMSWVRQAPGKGLEWVAYISNGGGSTYYPDTVKGRFTISRDNAKNSLYLQMNSLRAEDTAVYYCARNYGGTASFDYWGQGTLVTVSS VL: DIQMTQSPSSLSASVGDRVTITCLASQTIGTWLAWYQQKPGKAPKLLIYVATSLADGVPSRFSGSGSGTDFTLTISSLQPEDFATYYCQQNFIAPWTFGQGTKVEIK
9.7 fold | M3-L-A1-3-1F11 (hz1E11-154), periplasmic extract (antibody, V domains shown, Library clone expressed in bacteria with IPTG, tested as periplasmic extract; LCDR3 QQTAFSPWT) VH: EVQLVESGGGLVQPGGSLRLSCAASGFTFSSYTMSWVRQAPGKGLEWVAYISNGGGSTYYPDTVKGRFTISRDNAKNSLYLQMNSLRAEDTAVYYCARHLGGTASFDYWGQGTLVTVSS VL: DIQMTQSPSSLSASVGDRVTITCLASQTIGTWLAWYQQKPGKAPKLLIYVATSLADGVPSRFSGSGSGTDFTLTISSLQPEDFATYYCQQTAFSPWTFGQGTKVEIK
3.6 fold | M3-LH-A3-3-2A5 (antibody, name in Kabat numbering, V domains shown, hz1E11 library clone, periplasmic extract) VH: EVQLVESGGGLVQPGGSLRLSCAASGFTFSSYTMSWVRQAPGKGLEWVAYISNGGGSTYYPDTVKGRFTISRDNAKNSLYLQMNSLRAEDTAVYYCARHWGGTASFDYWGQGTLVTVSS VL: DIQMTQSPSSLSASVGDRVTITCLASQTIGTWLAWYQQKPGKAPKLLIYVATSLADGVPSRFSGSGSGTDFTLTISSLQPEDFATYYCQQMFSTPWTFGQGTKVEIK
3.2 fold | M3-LH-A1-2-2F4 (antibody, name in Kabat numbering, V domains shown, hz1E11 library clone, periplasmic extract) VH: EVQLVESGGGLVQPGGSLRLSCAASGFTFSSYTMSWVRQAPGKGLEWVAYISNGGGSTYYPDTVKGRFTISRDNAKNSLYLQMNSLRAEDTAVYYCARNLGGTASFDYWGQGTLVTVSS VL: DIQMTQSPSSLSASVGDRVTITCLASQTIGTWLAWYQQKPGKAPKLLIYVATSLADGVPSRFSGSGSGTDFTLTISSLQPEDFATYYCQQLVRIPWTFGQGTKVEIK
5.9 fold | M3-L-A3-4-2E8 (antibody, V domains shown, hz1E11 library clone, periplasmic extract) VH: EVQLVESGGGLVQPGGSLRLSCAASGFTFSSYTMSWVRQAPGKGLEWVAYISNGGGSTYYPDTVKGRFTISRDNAKNSLYLQMNSLRAEDTAVYYCARHLGGTASFDYWGQGTLVTVSS VL: DIQMTQSPSSLSASVGDRVTITCLASQTIGTWLAWYQQKPGKAPKLLIYVATSLADGVPSRFSGSGSGTDFTLTISSLQPEDFATYYCQQIAYVPWTFGQGTKVEIK
2 fold | M3-L-A1-3-2C2 (antibody, V domains shown, hz1E11 library clone, periplasmic extract) VH: EVQLVESGGGLVQPGGSLRLSCAASGFTFSSYTMSWVRQAPGKGLEWVAYISNGGGSTYYPDTVKGRFTISRDNAKNSLYLQMNSLRAEDTAVYYCARHLGGTASFDYWGQGTLVTVSS VL: DIQMTQSPSSLSASVGDRVTITCLASQTIGTWLAWYQQKPGKAPKLLIYVATSLADGVPSRFSGSGSGTDFTLTISSLQPEDFATYYCQQLGFIPWTFGQGTKVEIK
